Laboratory results taken from patent US20230192890A1.
Substitutions are numbered along the chain they refer to. Blank lines part the entries; values can stand above or below the binder they belong to.

Key:
[1] = molecular target: full-length recombinant mouse PAD4 (mouse) (UniProt Q9Z183); assay: ELISA, mouse PAD4 on plate, antibody 6.104E-05 ug/mL
[2] = molecular target: full-length recombinant mouse PAD4 (mouse) (UniProt Q9Z183); assay: ELISA, mouse PAD4 on plate, antibody 0.0625 ug/mL
[3] = molecular target: T1, Ala mutant SEQ ID NO: 28 (human); assay: ELISA, peptide on plate (10 ug/mL)
T1 sequence (peptide): EANMDDQWMQDEMEIGY

[4] = molecular target: T2, Ala mutant SEQ ID NO: 41 (human); assay: ELISA, peptide on plate (10 ug/mL)
T2 sequence (peptide): EENMDDQWMQDEMEAGY

[5] = molecular target: T3, Ala mutant SEQ ID NO: 36 (human); assay: ELISA, peptide on plate (10 ug/mL)
T3 sequence (peptide): EENMDDQWMADEMEIGY

[6] = molecular target: T4, Ala mutant SEQ ID NO: 38 (human); assay: ELISA, peptide on plate (10 ug/mL)
T4 sequence (peptide): EENMDDQWMQDAMEIGY

[7] = molecular target: T5, Ala mutant having 3-amino acid substitution, SEQ ID NO: 49 (human); assay: ELISA, peptide on plate (10 ug/mL)
T5 sequence (peptide): EENMDDQWMQDEMEIAA

[8] = molecular target: T6, Ala mutant SEQ ID NO: 37 (human); assay: ELISA, peptide on plate (10 ug/mL)
T6 sequence (peptide): EENMDDQWMQAEMEIGY

[9] = molecular target: T7, Ala mutant SEQ ID NO: 29 (human); assay: ELISA, peptide on plate (10 ug/mL)
T7 sequence (peptide): EEAMDDQWMQDEMEIGY

[10] = molecular target: T8, Ala mutant having 3-amino acid substitution, SEQ ID NO: 48 (human); assay: ELISA, peptide on plate (10 ug/mL)
T8 sequence (peptide): EENMDDQWMQDEAAAGY

[11] = molecular target: T9, Ala mutant having 3-amino acid substitution, SEQ ID NO: 47 (human); assay: ELISA, peptide on plate (10 ug/mL)
T9 sequence (peptide): EENMDDQWMAAAMEIGY

[12] = molecular target: T10, Ala mutant SEQ ID NO: 40 (human); assay: ELISA, peptide on plate (10 ug/mL)
T10 sequence (peptide): EENMDDQWMQDEMAIGY

[13] = molecular target: T11, Ala mutant SEQ ID NO: 42 (human); assay: ELISA, peptide on plate (10 ug/mL)
T11 sequence (peptide): EENMDDQWMQDEMEIAY

[14] = molecular target: T12, Ala mutant SEQ ID NO: 31 (human); assay: ELISA, peptide on plate (10 ug/mL)
T12 sequence (peptide): EENMADQWMQDEMEIGY

[15] = molecular target: T13, Ala mutant having 3-amino acid substitution, SEQ ID NO: 44 (human); assay: ELISA, peptide on plate (10 ug/mL)
T13 sequence (peptide): AAAMDDQWMQDEMEIGY

[16] = molecular target: T14, Ala mutant SEQ ID NO: 39 (human); assay: ELISA, peptide on plate (10 ug/mL)
T14 sequence (peptide): EENMDDQWMQDEAEIGY

[17] = molecular target: T15, Ala mutant SEQ ID NO: 33 (human); assay: ELISA, peptide on plate (10 ug/mL)
T15 sequence (peptide): EENMDDAWMQDEMEIGY

[18] = molecular target: T16, Ala mutant SEQ ID NO: 43 (human); assay: ELISA, peptide on plate (10 ug/mL)
T16 sequence (peptide): EENMDDQWMQDEMEIGA

[19] = molecular target: T17, Ala mutant SEQ ID NO: 27 (human); assay: ELISA, peptide on plate (10 ug/mL)
T17 sequence (peptide): AENMDDQWMQDEMEIGY

[20] = molecular target: T18, Ala mutant SEQ ID NO: 30 (human); assay: ELISA, peptide on plate (10 ug/mL)
T18 sequence (peptide): EENADDQWMQDEMEIGY

[21] = molecular target: T19, TA0096 (peptide antigen corresponding to positions 340 to 356 of PAD4) (human); assay: ELISA, peptide on plate (10 ug/mL)
T19 sequence (peptide): EENMDDQWMQDEMEIGY

[22] = molecular target: T20, Ala mutant SEQ ID NO: 32 (human); assay: ELISA, peptide on plate (10 ug/mL)
T20 sequence (peptide): EENMDAQWMQDEMEIGY

[23] = molecular target: full-length recombinant mouse PAD4 (mouse) (UniProt Q9Z183); assay: ELISA, mouse PAD4 on plate, antibody 0.0002441 ug/mL
[24] = molecular target: full-length recombinant mouse PAD4 (mouse) (UniProt Q9Z183); assay: ELISA, mouse PAD4 on plate, antibody 0.0039063 ug/mL
[25] = molecular target: full-length recombinant mouse PAD4 (mouse) (UniProt Q9Z183); assay: ELISA, mouse PAD4 on plate, antibody 0.015625 ug/mL
[26] = molecular target: full-length recombinant mouse PAD4 (mouse) (UniProt Q9Z183); assay: ELISA, mouse PAD4 on plate, antibody 0.0009766 ug/mL
[27] = molecular target: full-length recombinant mouse PAD4 (mouse) (UniProt Q9Z183); assay: ELISA, mouse PAD4 on plate, antibody 0.25 ug/mL
[28] = molecular target: full-length recombinant mouse PAD4 (mouse) (UniProt Q9Z183); assay: ELISA, mouse PAD4 on plate, antibody 1 ug/mL

full-length recombinant mouse PAD4 (mouse), sequence (Q9Z183 whole entry): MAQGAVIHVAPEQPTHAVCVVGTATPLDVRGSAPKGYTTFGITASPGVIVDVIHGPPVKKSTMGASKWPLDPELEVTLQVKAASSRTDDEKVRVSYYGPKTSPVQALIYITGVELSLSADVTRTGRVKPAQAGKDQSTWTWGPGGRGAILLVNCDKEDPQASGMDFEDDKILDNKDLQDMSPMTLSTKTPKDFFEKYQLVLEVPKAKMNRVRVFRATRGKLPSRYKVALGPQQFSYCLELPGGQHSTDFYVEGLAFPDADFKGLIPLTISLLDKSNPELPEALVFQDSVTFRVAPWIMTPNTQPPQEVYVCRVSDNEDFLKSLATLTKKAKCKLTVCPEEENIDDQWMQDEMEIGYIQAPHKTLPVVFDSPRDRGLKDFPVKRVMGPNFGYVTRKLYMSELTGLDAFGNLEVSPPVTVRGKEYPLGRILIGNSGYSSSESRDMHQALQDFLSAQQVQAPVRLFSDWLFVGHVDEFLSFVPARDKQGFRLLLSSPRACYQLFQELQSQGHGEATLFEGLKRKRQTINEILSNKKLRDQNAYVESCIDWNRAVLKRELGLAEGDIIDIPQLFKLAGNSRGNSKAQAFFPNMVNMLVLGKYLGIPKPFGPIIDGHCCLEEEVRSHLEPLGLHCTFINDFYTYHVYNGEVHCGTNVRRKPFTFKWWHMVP

absorbance 490 nm/630 nm [1]: 0.045 OD | absorbance 490 nm/630 nm [2]: 2.24 OD | absorbance 490 nm/630 nm [3]: 2 OD | absorbance 490 nm/630 nm [4]: 1.85 OD | absorbance 490 nm/630 nm [5]: 1.91 OD | absorbance 490 nm/630 nm [6]: 1.89 OD | absorbance 490 nm/630 nm [7]: 1.89 OD | absorbance 490 nm/630 nm [8]: 1.8 OD | absorbance 490 nm/630 nm [9]: 2.05 OD | absorbance 490 nm/630 nm [10]: 1.87 OD | absorbance 490 nm/630 nm [11]: 1.25 OD | absorbance 490 nm/630 nm [12]: 1.85 OD | absorbance 490 nm/630 nm [13]: 1.88 OD | absorbance 490 nm/630 nm [14]: 1.67 OD | absorbance 490 nm/630 nm [15]: 1.98 OD | absorbance 490 nm/630 nm [16]: 1.89 OD | absorbance 490 nm/630 nm [17]: 2.09 OD | absorbance 490 nm/630 nm [18]: 1.92 OD | absorbance 490 nm/630 nm [19]: 1.95 OD | absorbance 490 nm/630 nm [20]: 2.03 OD | absorbance 490 nm/630 nm [21]: 1.81 OD | absorbance 490 nm/630 nm [22]: 0.628 OD | absorbance 490 nm/630 nm [23]: 0.152 OD | absorbance 490 nm/630 nm [24]: 1.07 OD | absorbance 490 nm/630 nm [25]: 2.02 OD | absorbance 490 nm/630 nm [26]: 0.386 OD | absorbance 490 nm/630 nm [27]: 2.25 OD | absorbance 490 nm/630 nm [28]: 2.24 OD
B1: A11 (antibody, IgG1, V domains shown)
VH: AVTLDESGGGLQTPGGALSLVCKASGFDFSSYGMGWMRQAPGKGLEYVAAIRNDGSWTGYGAAVKGHATISRDNGQSTVRLQLNNLRAEDTGTYYCAKTTGSRGGSIDAWGHGTEVIVS
VL: ASTQPSSVSANLGGTVEITCSGGGRYYYGWYQQKSPGSAPVTVIYANDKRPSDIPSRFSGSKSGSTGTLTITGVQAEDEAVYFCGSAETSSYVFGAGTTLTVL

absorbance 490 nm/630 nm [1]: 0.051 OD | absorbance 490 nm/630 nm [2]: 2.19 OD | absorbance 490 nm/630 nm [3]: 2 OD | absorbance 490 nm/630 nm [4]: 1.8 OD | absorbance 490 nm/630 nm [5]: 1.9 OD | absorbance 490 nm/630 nm [6]: 1.91 OD | absorbance 490 nm/630 nm [7]: 1.85 OD | absorbance 490 nm/630 nm [8]: 1.2 OD | absorbance 490 nm/630 nm [9]: 1.92 OD | absorbance 490 nm/630 nm [10]: 1.81 OD | absorbance 490 nm/630 nm [11]: 1.34 OD | absorbance 490 nm/630 nm [12]: 1.82 OD | absorbance 490 nm/630 nm [13]: 1.83 OD | absorbance 490 nm/630 nm [14]: 1.38 OD | absorbance 490 nm/630 nm [15]: 1.9 OD | absorbance 490 nm/630 nm [16]: 1.77 OD | absorbance 490 nm/630 nm [17]: 1.93 OD | absorbance 490 nm/630 nm [18]: 1.88 OD | absorbance 490 nm/630 nm [19]: 1.89 OD | absorbance 490 nm/630 nm [20]: 1.91 OD | absorbance 490 nm/630 nm [21]: 1.79 OD | absorbance 490 nm/630 nm [22]: 0.177 OD | absorbance 490 nm/630 nm [23]: 0.122 OD | absorbance 490 nm/630 nm [24]: 0.956 OD | absorbance 490 nm/630 nm [25]: 1.86 OD | absorbance 490 nm/630 nm [26]: 0.416 OD | absorbance 490 nm/630 nm [27]: 2.23 OD | absorbance 490 nm/630 nm [28]: 2.23 OD
B2: E9 (antibody, IgG1, V domains shown)
VH: B1 VH with A17T, A24G, D28T, A62S, H67R, G92A, T100S, R103S, I107V
VL: B1 VL

absorbance 490 nm/630 nm [1]: 0.044 OD | absorbance 490 nm/630 nm [2]: 2.16 OD | absorbance 490 nm/630 nm [3]: 1.99 OD | absorbance 490 nm/630 nm [4]: 1.87 OD | absorbance 490 nm/630 nm [5]: 1.85 OD | absorbance 490 nm/630 nm [6]: 1.92 OD | absorbance 490 nm/630 nm [7]: 1.88 OD | absorbance 490 nm/630 nm [8]: 1.85 OD | absorbance 490 nm/630 nm [9]: 1.95 OD | absorbance 490 nm/630 nm [10]: 1.85 OD | absorbance 490 nm/630 nm [11]: 1.73 OD | absorbance 490 nm/630 nm [12]: 1.86 OD | absorbance 490 nm/630 nm [13]: 1.87 OD | absorbance 490 nm/630 nm [14]: 1.77 OD | absorbance 490 nm/630 nm [15]: 1.92 OD | absorbance 490 nm/630 nm [16]: 1.83 OD | absorbance 490 nm/630 nm [17]: 1.98 OD | absorbance 490 nm/630 nm [18]: 1.87 OD | absorbance 490 nm/630 nm [19]: 1.91 OD | absorbance 490 nm/630 nm [20]: 1.92 OD | absorbance 490 nm/630 nm [21]: 1.87 OD | absorbance 490 nm/630 nm [23]: 0.071 OD | absorbance 490 nm/630 nm [24]: 0.55 OD | absorbance 490 nm/630 nm [25]: 1.35 OD | absorbance 490 nm/630 nm [26]: 0.2 OD | absorbance 490 nm/630 nm [27]: 2.27 OD | absorbance 490 nm/630 nm [28]: 2.27 OD
B3: G6 (antibody, IgG1, V domains shown)
VH: B1 VH with D28T, G35E, M37V, H67R, N74D, V79L, G92A, R103S
VL: B1 VL with G14E, E17K, R25N, V43L, D53N, S86T, E88D, S90G, S91K
